# B1: siCYLD: RNA-mediated interference for downregulating CYLD expression using pSuper-CYLD, SEQ ID NO:13 (nucleic acid)
# chain: GATCCCCGAGCTACTGAGGACAGAAATTCAAGAGATTTCTGTCCTCAGTAGCTCTTTTTGGAAA
# modifications: expressed from pSuper vector
# What was measured:
# TGF-β-signalling [1] = assay: TGF-β-induced SBE-promoter activity in mouse MEF cells; format: cell-based
# Description: (§1) The expression plasmids Flag-WT-CYLD, HA-WT-CYLD, Flag-H/N-CYLD, HA-C/S-CYLD, Flag-WT-Smad3, C/A-TβRI, and the reporter plasmids SBE-Luc, PAI-1-Luc, and NF-κB-Luc were previously described. Flag-WT-Akt1, pRK5-HA-Ub WT, pRK5-HA-Ub K63, and pRK5-HA-Ub K48 were from Addgene, and K to R mutants of Akt were generated with WT-Akt1 using QuickChange XL Site-Directed Mutagenesis kit (Stratagene). All transient transfections were carried out using TransIT-LT1 reagent (Minis) or Lipofectamine (Invitrogen) according to manufacturers' instructions.
# PAI-1 = assay: TGF-β-induced PAI-1 expression in Akt1−/− cells; format: cell-based
# Source text: Thus, we determined the effect of knockdown of both Akt1 and 2 on Smad3 protein level in these cells. […] We further confirmed whether activation of Akt does induce upregulation of fibrotic response gene expression via Smad3. Activation of Akt by expressing a constitutively active C/A-Akt indeed induced expression of PAI-1 and CTGF in Smad3+/+ cells, but not in Smad3−/− cells. […] PI3 K is known as the one of the major signalling molecules upstream of Akt. We thus determined whether PI3K, like Akt, is also involved in mediating CYLD-dependent Smad3 degradation by evaluating the effect of PI3K and Akt inhibitors on Smad3 protein expression. […] Further studies are needed to determine whether CYLD-Akt-mediated regulation of Smad3 is indeed independent of PI3K by using more specific approaches.
# TGF-β-signalling [2] = assay: TGF-β-induced SBE-promoter (SBE-Luc) activity in human epithelial cells; format: cell-based
# Description: as §1
# CYLD = CYLD knockdown efficiency of siCYLD (immunoblotting); format: cell-based, human; conditions: a number of cell types including NHBE cells
# Description: RNA-mediated interference for downregulating CYLD expression was carried out using pSuper-CYLD and the sequence for the siCYLD is 5′-[…]-3′ (SEQ ID NO:13). Human and mouse siRNAs for Akt and CHIP were from Dharmacon, and knockdown of Akts and CHIP, using siAkt and siCHIP, was performed with Lipofectamine 2000 (Invitrogen). ON-TARGETplus SMARTpool of siRNAs targeting human Akt1, human CHIP, mouse Akt1, and mouse Akt2 consists of four siRNAs and sequences for the siRNAs are as follows: Human siAkt1 (5′-[…]-3′ (SEQ ID NO:14), 5′-[…]-3′ (SEQ ID NO:15), 5′[…]-3′ (SEQ ID NO:16), 5′-[…]-3′ (SEQ ID NO:17)); human CHIP (5′-[…]-3′ (SEQ ID NO:18), 5′-[…]-3′ (SEQ ID NO:19), 5′-[…]-3′ (SEQ ID NO:20), 5′-[…]-3′ (SEQ ID NO:21)); mouse Akt1 (5′-[…]-3′ (SEQ ID NO:22), 5′-[…]-3′ (SEQ ID NO:23), 5′-[…]-3′ (SEQ ID NO:24), 5′-[…]-3′ (SEQ ID NO:25)); mouse Akt2 (5′-[…]-3′ (SEQ ID NO:26), 5′-[…]-3′ (SEQ ID NO:27), 5′-[…]-3′ (SEQ ID NO:28), 5′-[…]-3′ (SEQ ID NO:29)).
# Western blot, immunoprecipitation and ubiquitination experiments were performed as follows. Western blots were performed using whole-cell extracts, separated on 8 or 10% SDS-PAGE gels, and transferred to polyvinylidine di& uoride membranes. […] Immunoprecipitates were then suspended in a sample buffer, separated on 8% SDS-PAGE, transferred to polyvinylidine difluoride membrane, and detected by immunoblot analysis, as described above. […]
# [3] = test system: TGF-β-induced fibrotic response; assay: TGF-β-induced fibrotic response in TRAF6-depleted cells; format: cell-based
# Source text: Because K14 lysine in the pleckstrin homology domain of Akt is critical for mediating its function, we next determined whether mutation of K14 lysine to arginine (R) reduces polyubiquitination of Akt. […] We further determined whether K14 residue in Akt is indeed functionally critical for mediating CYLD-induced inhibition of TGF-β-signalling. […] TNF receptor-associated factor 6 (TRAF6) was previously shown to function as an E3 ligase for Akt-K63 polyubiquitination and CYLD deubiquitinates TRAF6. Thus, we next explored the possibility that CYLD may inhibit Akt-mediated fibrotic responses via deubiquitinating TRAF6.
# It is possible that CYLD may inhibit Akt-mediated fibrotic response by actually deubiquitinating TRAF6. Thus, we evaluated the effect of siCYLD on TGF-β-induced fibrotic response in TRAF6-depleted cells using siTRAF6. […] Here we have provided strong evidence that CYLD inhibits S. pneumoniae-induced Smad3-dependent fibrosis via inhibiting Akt, thereby linking CYLD to Smad3 via Akt. It is still unclear whether or not direct activation of Akt induces a fibrotic response via Smad3. Indeed, direct activation of Akt by expressing a constitutively active form of C/A-Akt induces expression of the fibrotic response gene PAI-1 and CTGF in Smad3+/+ cells, but not in Smad3−/− cells. […]
molecule,measurement,setting,value
B1,SBE-Luc activity in the absence of Smad3,TGF-β-signalling [1]; Smad3-deficient MEF cells,did not enhance
same,SBE-Luc activity in cells reconstituted with WT-Smad3,TGF-β-signalling [1]; Smad3-deficient MEF cells + WT-Smad3,markedly enhanced
same,TGF-β-induced PAI-1 expression,PAI-1,no longer enhanced
same,TGF-β-induced Smad-binding element (SBE)-dependent promoter activity,TGF-β-signalling [2]; A549 and HeLa cells,markedly enhanced
same,"TGF-β-induced SBE-dependent promoter activity, dose-dependent manner",TGF-β-signalling [2]; A549 cells transfected with various amounts,enhanced
same,TGF-β-induced SBE-Luc activity,TGF-β-signalling [2]; human primary bronchial epithelial NHBE cells,enhanced
same,endogenous CYLD protein expression,CYLD,efficiently reduced
same,TGF-β-induced fibrotic response,[3],still enhanced

# From patent US9951335B2, “Compositions and methods for treating otitis media and other conditions with inhibitors of CYLD” (Georgia State University Research Foundation, Inc., priority 2012, dated 2018)
